Measured values as given in US20260234222A1 (LEYDEN LABORATORIES B V, published 2026).
Where two headings read alike, the source gives them in different places.

T1: MERS-CoV Spike antigen (MERS-CoV, UniProt K9N5Q8 18-1291)
T1 sequence: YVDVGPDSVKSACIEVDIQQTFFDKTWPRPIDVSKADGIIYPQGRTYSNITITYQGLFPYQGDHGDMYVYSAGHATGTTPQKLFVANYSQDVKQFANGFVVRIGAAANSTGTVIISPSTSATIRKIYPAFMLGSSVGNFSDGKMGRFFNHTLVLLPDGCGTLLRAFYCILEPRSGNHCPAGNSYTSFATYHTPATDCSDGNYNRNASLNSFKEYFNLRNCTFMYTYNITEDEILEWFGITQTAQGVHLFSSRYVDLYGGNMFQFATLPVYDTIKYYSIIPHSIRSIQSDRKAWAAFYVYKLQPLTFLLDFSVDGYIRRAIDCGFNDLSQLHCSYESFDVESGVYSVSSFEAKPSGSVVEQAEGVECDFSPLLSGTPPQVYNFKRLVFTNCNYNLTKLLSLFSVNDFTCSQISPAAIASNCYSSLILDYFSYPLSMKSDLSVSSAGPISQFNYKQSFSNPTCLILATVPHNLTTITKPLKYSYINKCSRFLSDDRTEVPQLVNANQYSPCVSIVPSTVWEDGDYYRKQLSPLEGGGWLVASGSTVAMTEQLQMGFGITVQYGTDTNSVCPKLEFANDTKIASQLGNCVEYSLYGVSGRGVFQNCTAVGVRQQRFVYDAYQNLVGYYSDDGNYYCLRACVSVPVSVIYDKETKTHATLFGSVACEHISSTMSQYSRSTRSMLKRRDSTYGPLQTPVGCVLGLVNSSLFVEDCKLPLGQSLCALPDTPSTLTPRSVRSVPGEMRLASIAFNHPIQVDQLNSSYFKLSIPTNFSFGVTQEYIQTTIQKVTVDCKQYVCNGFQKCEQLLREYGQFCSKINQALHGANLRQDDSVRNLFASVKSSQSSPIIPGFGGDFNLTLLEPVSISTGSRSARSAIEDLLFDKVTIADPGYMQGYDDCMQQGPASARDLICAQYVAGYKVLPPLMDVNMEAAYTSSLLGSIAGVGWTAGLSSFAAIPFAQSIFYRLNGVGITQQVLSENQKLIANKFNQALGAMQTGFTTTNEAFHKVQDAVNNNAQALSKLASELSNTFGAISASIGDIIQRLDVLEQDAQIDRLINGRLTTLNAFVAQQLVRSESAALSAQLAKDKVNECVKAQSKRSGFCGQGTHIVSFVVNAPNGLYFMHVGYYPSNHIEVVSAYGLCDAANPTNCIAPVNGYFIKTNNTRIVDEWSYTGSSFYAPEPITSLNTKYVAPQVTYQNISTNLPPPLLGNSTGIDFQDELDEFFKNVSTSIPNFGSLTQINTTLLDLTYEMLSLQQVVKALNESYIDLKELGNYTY

T2: hCoV-NL63 Spike antigen (hCoV-NL63, UniProt Q6Q1S2 19-1291)
T2 sequence: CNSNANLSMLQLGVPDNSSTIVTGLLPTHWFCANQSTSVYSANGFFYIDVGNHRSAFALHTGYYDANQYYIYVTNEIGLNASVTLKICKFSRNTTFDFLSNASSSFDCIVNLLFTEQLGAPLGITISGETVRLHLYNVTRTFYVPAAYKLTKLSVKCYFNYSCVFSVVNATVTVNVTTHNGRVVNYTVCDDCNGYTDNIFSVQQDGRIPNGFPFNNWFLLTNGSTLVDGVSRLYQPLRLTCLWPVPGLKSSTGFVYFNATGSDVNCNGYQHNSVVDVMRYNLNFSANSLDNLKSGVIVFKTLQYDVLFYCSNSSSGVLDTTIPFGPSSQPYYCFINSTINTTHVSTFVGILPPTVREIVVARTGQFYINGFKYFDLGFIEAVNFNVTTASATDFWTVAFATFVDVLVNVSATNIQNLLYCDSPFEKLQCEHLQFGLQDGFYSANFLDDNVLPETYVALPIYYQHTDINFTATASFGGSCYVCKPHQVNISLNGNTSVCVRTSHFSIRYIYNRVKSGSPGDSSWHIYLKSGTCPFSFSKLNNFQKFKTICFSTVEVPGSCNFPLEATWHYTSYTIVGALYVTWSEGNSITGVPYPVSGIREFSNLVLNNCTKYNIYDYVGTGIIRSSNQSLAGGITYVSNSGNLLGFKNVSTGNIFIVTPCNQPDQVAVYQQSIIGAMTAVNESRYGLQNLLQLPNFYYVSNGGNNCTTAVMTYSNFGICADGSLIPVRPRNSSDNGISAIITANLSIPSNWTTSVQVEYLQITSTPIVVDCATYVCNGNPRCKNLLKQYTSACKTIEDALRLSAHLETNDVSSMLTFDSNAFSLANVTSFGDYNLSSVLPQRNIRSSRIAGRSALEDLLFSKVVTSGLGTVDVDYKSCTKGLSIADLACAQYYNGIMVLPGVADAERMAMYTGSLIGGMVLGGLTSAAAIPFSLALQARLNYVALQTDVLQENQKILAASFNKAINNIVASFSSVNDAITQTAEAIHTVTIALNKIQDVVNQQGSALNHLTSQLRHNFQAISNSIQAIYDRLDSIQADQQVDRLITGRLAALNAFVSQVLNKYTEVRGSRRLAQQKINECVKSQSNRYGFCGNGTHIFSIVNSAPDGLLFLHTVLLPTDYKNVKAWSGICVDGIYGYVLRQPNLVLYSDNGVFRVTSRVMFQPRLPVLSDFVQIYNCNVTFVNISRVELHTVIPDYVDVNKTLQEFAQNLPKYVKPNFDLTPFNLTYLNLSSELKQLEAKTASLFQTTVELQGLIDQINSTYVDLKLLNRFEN

B1: Parental mAb 1 (antibody, V domains shown)
VH: QEQLVQSGAEVKKPGASVKVSCKSSGFTFSYFYLHWVRQAPGQGLEWMGIINPRGDGTRYAQKFQGRVTMTRDASTGTLYMELRSLRSEDTAVYYCARGADHGAFDIWGQGTMVTVSS
VL: EIVLTQSPGTLSLSPGERATLSCRASQSVRRNYFAWYQQKRGQAPRLLIYDASTRATGIPDRFSGSGSGTDFTLTISRLEPEDFAVYYCQQYDSSPPMYIFGQGTKLEIK
notes: also called antibody according to the invention; first parental antibody
B2: Bispecific 1 (bispecific antibody)
heavy 1: not shown
light 1: EIVLTQSPGTLSLSPGERATLSCRASQSVRRNYFAWYQQKRGQAPRLLIYDASTRATGIPDRFSGSGSGTDFTLTISRLEPEDFAVYYCQQYDSSPPMYIFGQGTKLEIKSSASTKGPSVFPLAPSSKSTSGGTAALGCLVKDYFPEPVTVSWNSGALTSGVHTFPAVLQSSGLYSLSSVVTVPSSSLGTQTYICNVNHKPSNTKVDKKVEPKSC
heavy 2: not shown
light 2: QSALTQPPSASGSPGQSVTISCSGTSSDVGGYNFVSWYQHHPGKAPKILIYEVTKRPSGVPDRFSGSKSGNTASLTVSGLQAEDEADYYCSSYGGTNNLLFGGGTKLTVLGQPKAAPSVTLFPPSSEELQANKATLVCLISDFYPGAVTVAWKADSSPVKAGVETTTPSKQSNNKYAASSYLSLTPEQWKSHRSYSCQVTHEGSTVEKTVAPTECS
B3: Parental mAb 2 (antibody, V domains shown)
VH: QMQLMQSGAEVKKPGASVTVSCKASGDTFSDYRIHWVRQAPGQGLEWMGRMNPKSGDTNFAQKFQGRVTMTRDMSINTAYMTLSGLTFDDTALYYCASLLIVGGFDPLDDFEVWGQGTMVTISS
VL: QSALTQPPSASGSPGQSVTISCSGTSSDVGGYNFVSWYQHHPGKAPKILIYEVTKRPSGVPDRFSGSKSGNTASLTVSGLQAEDEADYYCSSYGGTNNLLFGGGTKLTVL

Tests used:
[1] = target: T3, SARS-CoV-2 Spike antigen (SARS-CoV-2, UniProt P0DTC2 14-1208); experiment: cell-based or functional assay
[2] = target: T4, SARS-CoV-1 Spike antigen (SARS-CoV-1, UniProt P59594 14-1190); experiment: cell-based or functional assay
[3] = target: T1, MERS-CoV Spike antigen; experiment: cell-based or functional assay
[4] = target: T3, SARS-CoV-2 Spike antigen; experiment: cell-based or functional assay; remark: listed apart in the source
[5] = target: T4, SARS-CoV-1 Spike antigen; experiment: cell-based or functional assay; remark: listed apart in the source
[6] = target: T2, hCoV-NL63 Spike antigen; experiment: cell-based or functional assay
[7] = target: T3, SARS-CoV-2 Spike antigen; experiment: cell-based or functional assay; remark: listed apart in the source
[8] = target: T4, SARS-CoV-1 Spike antigen; experiment: cell-based or functional assay; remark: listed apart in the source
[9] = target: T1, MERS-CoV Spike antigen; experiment: cell-based or functional assay; remark: listed apart in the source
[10] = target: T3, SARS-CoV-2 Spike antigen; experiment: cell-based or functional assay; remark: listed apart in the source
[11] = target: T2, hCoV-NL63 Spike antigen; experiment: ELISA, Spike antigen coated on plate

Binder	Live virus neutralization IC50 [1]	Live virus neutralization IC50 [2]	Live virus neutralization IC50 [3]	Pseudovirion neutralization IC50 [4]	Pseudovirion neutralization IC50 [5]	Pseudovirion neutralization IC50 [6]	Live virus neutralization IC50 [7]	Live virus neutralization IC50 [8]	Live virus neutralization IC50 [9]	Pseudovirion neutralization IC50 [10]	binding result [11]
B1	9.87 µg/mL	2.73 µg/mL	1.49 µg/mL	0.072 µg/mL	0.588 µg/mL	> 250 µg/mL	6.44 µg/mL	4.18 µg/mL	0.86 µg/mL	0.072 µg/mL	no binding (tested: 10.0-0.000002 nM)
B2	–	–	–	–	–	–	–	6.67 µg/mL	1.32 µg/mL	–	–
B3	–	–	–	–	–	–	–	5.94 µg/mL	11.6 µg/mL	–	–
